{"source": "patent US20240366624A1", "about": "“METHODS AND COMPOSITIONS FOR TREATING THROMBOTIC DISEASE” (Washington University, priority 2023, published 2024)", "molecules": {"B1": {"name": "mutant STIM1: STIM1 with Cys49 and Cys56 mutated to Ser (protein)", "chain": "LSHSHSEKATGTSSGANSEESTAAEFSRIDKPLSHSEDEKLSFEAVRNIHKLMDDDANGDVDVEESDEFLREDLNYHDPTVKHSTFHGEDKLISVEDLWKAWKSSEVYNWTVDEVVQWLITYVELPQYEETFRKLQLSGHAMPRLAVTNTTMTGTVLKMTDRSHRQKLQLKALDTVLFGPPLLTRHNHLKD"}}, "biological_target": "T1, ERO1α (Homo sapiens, UniProt Q96HE7)", "T1 sequence (Q96HE7 24-468)": "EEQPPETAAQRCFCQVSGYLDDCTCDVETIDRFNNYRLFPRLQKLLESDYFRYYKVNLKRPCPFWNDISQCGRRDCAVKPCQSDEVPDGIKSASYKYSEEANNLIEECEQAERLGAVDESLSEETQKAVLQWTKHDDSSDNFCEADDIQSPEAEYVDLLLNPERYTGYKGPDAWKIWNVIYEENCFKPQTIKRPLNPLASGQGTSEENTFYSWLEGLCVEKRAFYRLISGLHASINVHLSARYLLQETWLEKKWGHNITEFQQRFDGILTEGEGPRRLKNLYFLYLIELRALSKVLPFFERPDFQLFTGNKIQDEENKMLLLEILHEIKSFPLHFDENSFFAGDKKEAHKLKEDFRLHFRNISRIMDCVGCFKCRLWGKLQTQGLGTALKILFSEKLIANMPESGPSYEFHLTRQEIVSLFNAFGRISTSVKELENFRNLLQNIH", "assay": "Bio-layer interferometry, STIM1 on biotinylated ERO1α biosensor", "type": "binding", "experimental": "FIG. 11(A-Q) is an exemplary embodiment of ERO1α (endoplasmic reticulum oxidoreductase 1α) regulating the function of Ca^2+ signaling molecules, STIM1 (stromal interaction molecule 1) and SERCA2 (sarco/endoplasmic reticulum Ca^2+ ATPase 2), and enhancing cytosolic Ca^2+ levels during platelet activation in accordance with the present disclosure. FIG. 11A: Mass spectrometric analysis was performed to identify proteins interacting with ERO1α in resting and thrombin-activated human platelets. […] FIG. 11B and FIG. 11C: Immunoprecipitation of ERO1α with lysates of resting and thrombin (Thr)-activated human platelets, followed by immunoblotting and densitometry. FIG. 11(D-F): Ca^2+ release and influx of wild type (WT) and Ero1α-null platelets were assessed in response to 0.1 U/mL thrombin, 2 μM A23187, or 20 μM thapsigargin (TG), followed by the addition of 1 mM CaCl2. The Ca^2+ signal was quantified by the area under the curve (AUC). […] After incubation with a different concentration of wtSTIM1 and mutant STIM1 (mSTIM1), the specific interaction between ERO1α and STIM1 was measured by subtracting the nonspecific binding. The dissociation constant, KD, was calculated from the Kon and Koff values. […] Please note that the unmodified peptide was not detected. […] P values determined by unpaired Student t test. […]"}
{"molecule": "B1", "values": [{"measurement": "KD, ERO1α binding to STIM1", "result": "minimal and not concentration dependent"}]}
